Laboratory results from PMC2978106, “The Arabidopsis ABA-Activated Kinase OST1 Phosphorylates the bZIP Transcription Factor ABF3 and Creates a 14-3-3 Binding Site Involved in Its Turnover” (PLoS ONE, 2010).
Where no end group is shown, it is not given here. [ ]: non-standard residue; d: D form. pT = C[C@@H](OP(=O)(O)O)[C@H](N)C(=O)O

Biological target: T1, Arabidopsis 14-3-3 protein GF14phi fused to GST (Arabidopsis, UniProt P46077 1-267)
T1 construct: 14-3-3 protein GF14phi of Arabidopsis; also called GST-14-3-3; source: E. coli, loaded on glutathione beads
T1 sequence (looked up): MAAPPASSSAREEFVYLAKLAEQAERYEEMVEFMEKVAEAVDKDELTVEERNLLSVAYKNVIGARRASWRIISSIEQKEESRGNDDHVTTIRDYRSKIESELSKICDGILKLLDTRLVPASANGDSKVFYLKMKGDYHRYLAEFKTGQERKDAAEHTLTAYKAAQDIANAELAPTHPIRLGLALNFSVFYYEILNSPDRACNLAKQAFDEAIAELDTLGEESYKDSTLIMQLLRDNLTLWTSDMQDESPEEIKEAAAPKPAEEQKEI
Assay: pull-down; GST-GF14phi (0.4 nmole) on glutathione beads; 15 µM peptide phosphorylated by OST1 with ATP^γ32; 30 min at 25°C; 20 mM Tris-HCl pH 7.5, 150 mM NaCl, 1 mM CaCl2, 1 mM DTT, 0.05% Tween20; bound peptide counted by Cerenkov counting
Details: both partners purified

B1: ABF3T451 peptide phosphorylated by OST1 (peptide)
peptide: KKRQCLRRTL[pT]GPW
modifications: also: phosphothreonine at T451 (T9 or T11 of chain, not fixed by letters)
notes: residues printed before L446 of the ABF3T451 peptide; C-terminal end of ABF3 (C4 domain, LXRXXTXP motif with T451), Arabidopsis thaliana, At4g34000; It holds two threonines (T449, T451); also called pABF3T451; phospho-ABF3T451
binding result: binds
